B1: OR4K15 (parent)
chain: GUUAACGGUCAUAGGCCAUGGAAACUAGGAGCACCAUUUCGCUGCCAGUGAAGAAAUGAACAAAGAAAAUCUGGGCCAGGCAGGCAUCAAAAGAAAUAGUCUUGCGCUCAACCAGAAAGUCUGUAAUCAUUUUAAGGGUA

Variants of B1 are the subject of the series. The series is described as follows: self-cleavage, relative activity (ratio to wild type); higher = more cleavage; in vitro, sequencing; the parent is a self-cleaving ribozyme.
For U2G U19A, the self-cleavage came to 0.72.

As for U2C U87A, the self-cleavage worked out at 0.9.

With U2C U130C, the self-cleavage came out at 1.06.

On to U2C U139A, for which the self-cleavage is 0.92.

In the case of U3C A117G, the self-cleavage stood at 1.69.

For the variant U3C C32U, the self-cleavage was found to be 1.2.

In the case of A4U U132C, the self-cleavage came to 2.14.

On to A4G A66G, for which the self-cleavage was 0.53.

Consider U2C U133C, for which the self-cleavage came to 0.71.

On to U3C G48A, for which the self-cleavage worked out at 0.97.

Turning to A5G A68U, the self-cleavage was found to be 0.85.

A5G A68C: the self-cleavage was 1.03.

In the case of A5G A117G, the self-cleavage amounted to 1.51.

U3C U57C: the self-cleavage amounted to 1.28.

In the case of U3C U57A, the self-cleavage came to 0.88.

With A5G A134U, the self-cleavage is 1.24.

Take A4G A55U: the self-cleavage amounted to 1.33.

Turning to U3C U72A, the self-cleavage was determined as 0.17.

For the variant U3C A24G, the self-cleavage came out at 0.9.

For A5G U70A, the self-cleavage was 0.75.

For U3C A66G, the self-cleavage was 1.45.

Take A5C A126G: the self-cleavage stood at 1.54.

Turning to U3C U122C, the self-cleavage turned out to be 1.32.

Take U3C A52U: the self-cleavage came to 1.8.

Regarding A4G A125G, the self-cleavage was determined as 0.55.

U3A A89G: the self-cleavage stood at 1.51.

In the case of U2G A92G, the self-cleavage was determined as 0.73.

On to A5G A98G, for which the self-cleavage is 0.7.

With U3C U37C, the self-cleavage is 1.05.

A5G G44A: the self-cleavage is 0.86.

As for U3C A140G, the self-cleavage was found to be 0.65.

A5G G106C: the self-cleavage amounted to 0.08.

U3C G7A: the self-cleavage is 0.99.

For the variant U3C A86G, the self-cleavage was determined as 1.05.

Consider U3C A86C, for which the self-cleavage came out at 0.37.

As for U2C G138A, the self-cleavage came to 1.1.

As for A4G A91G, the self-cleavage was determined as 1.13.

With A4G A91U, the self-cleavage was determined as 1.36.

Regarding A5G U38A, the self-cleavage was found to be 0.58.

In the case of A5G U38C, the self-cleavage is 1.14.

As for U3C A82U, the self-cleavage worked out at 0.21.

In the case of U2C U38C, the self-cleavage is 1.09.

In the case of U2C U38A, the self-cleavage was 1.07.

With A4G A56U, the self-cleavage was 0.65.

For A5G U9A, the self-cleavage was determined as 1.38.

Regarding U3A U100C, the self-cleavage worked out at 1.63.

In the case of A5C U127C, the self-cleavage was 0.89.

Turning to U3A A66G, the self-cleavage amounted to 1.1.

Regarding A4G U70C, the self-cleavage turned out to be 0.79.

As to U2G U38A, the self-cleavage was 1.08.

On to A4G A78G, for which the self-cleavage is 0.59.

U2G A23G: the self-cleavage was found to be 0.75.

As to U2C G137U, the self-cleavage came out at 1.25.

As for U3C C109G, the self-cleavage turned out to be 0.04.

As for A5G C40U, the self-cleavage was 1.31.

Consider U2C U37C, for which the self-cleavage is 1.26.

On to U2C U37G, for which the self-cleavage is 0.75.

Turning to A4G A117G, the self-cleavage was 1.18.

As for A4G A117U, the self-cleavage amounted to 0.81.

With A5G G15A, the self-cleavage was 1.02.

Take A5G A64U: the self-cleavage stood at 1.85.

As to A5G A64G, the self-cleavage turned out to be 1.16.

With U3C A5G, the self-cleavage amounted to 1.

Consider U3A A126G, for which the self-cleavage worked out at 1.73.

As for U2C U122A, the self-cleavage was 1.85.

Consider A5G G99A, for which the self-cleavage worked out at 0.66.

Take U3C U120A: the self-cleavage stood at 1.72.

In the case of U3C U120C, the self-cleavage is 1.42.

With U3C A51C, the self-cleavage was found to be 0.84.

With U3C A51U, the self-cleavage was found to be 1.27.

Regarding A4G A22G, the self-cleavage was 1.17.

With U2C U100A, the self-cleavage is 0.48.

In the case of U3C U70C, the self-cleavage was determined as 0.76.

With A5G A18G, the self-cleavage stood at 0.8.

For A5G A18U, the self-cleavage amounted to 1.12.

As for A4C U43A, the self-cleavage was 0.94.

Take U3G A140G: the self-cleavage was determined as 1.39.

Regarding A5G A27G, the self-cleavage worked out at 1.02.

U2G U130C: the self-cleavage turned out to be 0.3.

With U3C U9C, the self-cleavage came out at 1.36.

As for U3C U9A, the self-cleavage came out at 0.85.

Take A4U A114U: the self-cleavage amounted to 0.22.

In the case of A4G A54G, the self-cleavage stood at 0.55.

Turning to A5G A135U, the self-cleavage came out at 1.26.

Regarding A5G G21U, the self-cleavage was 0.96.

On to A5G G29A, for which the self-cleavage stood at 1.06.

Regarding A5G A59G, the self-cleavage came out at 0.99.

Consider U3C A63U, for which the self-cleavage is 1.02.

As to A4G A60G, the self-cleavage is 1.27.

As to A5G U37A, the self-cleavage turned out to be 1.3.

Take A5G U37C: the self-cleavage stood at 1.29.

For the variant U3C A89G, the self-cleavage came out at 0.99.

In the case of U3C A89U, the self-cleavage amounted to 0.54.

For A4G U57C, the self-cleavage is 0.86.

As to A5C A30G, the self-cleavage is 0.85.

For U2C G74U, the self-cleavage is 0.08.

Regarding U2C G74A, the self-cleavage was 0.18.

Take A4G G20A: the self-cleavage stood at 0.82.

Take U3C A118G: the self-cleavage amounted to 0.54.

U3C A118U: the self-cleavage is 1.94.

Consider A4U U70C, for which the self-cleavage was 0.89.

As for A5G A52U, the self-cleavage was found to be 0.85.

Consider A4U A30U, for which the self-cleavage stood at 1.05.

On to A5C A33U, for which the self-cleavage worked out at 2.21.

Regarding U2C U103C, the self-cleavage came to 0.99.

Consider A4G A47C, for which the self-cleavage amounted to 0.42.

For A4G A129G, the self-cleavage stood at 0.78.

U2G A51G: the self-cleavage stood at 0.95.

U2C U70G: the self-cleavage came to 1.51.

Turning to A5G G137U, the self-cleavage was found to be 1.62.

Regarding A5G A129G, the self-cleavage worked out at 0.87.

With U2C U132C, the self-cleavage turned out to be 1.4.

Consider U3A G53A, for which the self-cleavage was 1.01.

With A4G A62G, the self-cleavage is 1.09.

Take U2G A33G: the self-cleavage came to 0.43.

As to A4U A13G, the self-cleavage was 1.23.

Turning to U3C A114U, the self-cleavage amounted to 0.04.

As to U3G A110U, the self-cleavage came to 1.67.

Consider A4G G75A, for which the self-cleavage was determined as 0.33.

As to A4G A64C, the self-cleavage stood at 0.79.

With A5G C101A, the self-cleavage turned out to be 0.25.

With A4G A86U, the self-cleavage was 0.95.

For the variant A4G A86G, the self-cleavage came to 0.72.

As to A4G A59G, the self-cleavage stood at 1.04.

Regarding U2C U57C, the self-cleavage stood at 0.75.

With U2C U57G, the self-cleavage came out at 0.66.

Take A5C U122C: the self-cleavage amounted to 0.99.

As to U2C U108A, the self-cleavage stood at 0.01.

U3C C101U: the self-cleavage amounted to 0.51.

For the variant U3A A111G, the self-cleavage came to 0.08.

Turning to A5C A66U, the self-cleavage was 0.83.

For the variant A5G G48U, the self-cleavage was 0.93.

For A5C A98G, the self-cleavage turned out to be 0.42.

For A5C U108C, the self-cleavage came out at 0.03.

Take U3A A125G: the self-cleavage is 0.39.

For A5G A114G, the self-cleavage stood at 0.41.

As to A5G A114U, the self-cleavage came to 0.04.

Turning to A4G C105U, the self-cleavage stood at 0.14.

Take U2G A63C: the self-cleavage came to 0.7.

As for A4G C42U, the self-cleavage is 0.81.

Consider U3A U139A, for which the self-cleavage came out at 1.89.

For the variant A5G A116G, the self-cleavage was found to be 0.47.

On to A5G C35U, for which the self-cleavage was 1.59.

With U2G A11G, the self-cleavage is 1.05.

A4U U133C: the self-cleavage is 1.79.

As for U3C U97C, the self-cleavage turned out to be 1.12.

In the case of U2G G93U, the self-cleavage was 1.01.

For the variant A4G A135G, the self-cleavage stood at 1.18.

Regarding A5G A56U, the self-cleavage turned out to be 1.18.

A4G G74C: the self-cleavage turned out to be 0.36.

For the variant U3A A23G, the self-cleavage came to 1.17.

For A4G U122C, the self-cleavage was 0.78.

For the variant A4U A118G, the self-cleavage stood at 1.08.

As for U2C G75U, the self-cleavage came out at 0.27.

As for A4G A116G, the self-cleavage came out at 0.94.

Take A4G A116U: the self-cleavage was found to be 0.26.

In the case of U2G U132C, the self-cleavage is 1.4.

Consider A4G A111G, for which the self-cleavage was found to be 0.1.

Consider A4U A47G, for which the self-cleavage was 0.

Turning to U3G A11U, the self-cleavage was determined as 0.74.

Consider A5G A55C, for which the self-cleavage worked out at 0.33.

U3G A52G: the self-cleavage worked out at 0.67.

For the variant U2G A135G, the self-cleavage came to 0.69.

Turning to A5G G74A, the self-cleavage was found to be 0.73.

With A4G U133A, the self-cleavage was found to be 1.25.

Take A4G U133C: the self-cleavage is 1.3.

Regarding U3C A22G, the self-cleavage was 1.33.

Source of the values: the RNAGym collection of RNA variant scans (doi:10.7554/elife.90254).
